PMC11582362

T1: ADAR1-dsRBD3 interface mutant (monomeric) (Homo sapiens, UniProt P55265 708-801, V747A;D748Q;W768V;C773S)
T1 sequence: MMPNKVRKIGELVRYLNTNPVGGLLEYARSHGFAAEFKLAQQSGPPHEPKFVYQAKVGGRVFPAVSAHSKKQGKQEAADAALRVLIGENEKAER

T2: ADAR1-dsRBD3 wild-type (dsRBD3-mid) (Homo sapiens, UniProt P55265 708-801)
T2 sequence: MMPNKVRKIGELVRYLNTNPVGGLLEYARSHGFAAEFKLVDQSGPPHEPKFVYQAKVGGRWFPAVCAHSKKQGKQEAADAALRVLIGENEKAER

T3: ADAR1-dsRBD3 (dsRBD3-short) (Homo sapiens, UniProt P55265 716-797)
T3 sequence: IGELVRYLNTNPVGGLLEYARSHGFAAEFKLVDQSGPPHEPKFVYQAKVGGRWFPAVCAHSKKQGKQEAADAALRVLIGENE


Legend:
[1] = molecular target: T1, ADAR1-dsRBD3 interface mutant …; test: ITC; N = 3.60 ± 0.36; ITC: 25 mM Na-phosphate pH 7.0, 100 mM NaCl, 2 mM 2-mercaptoethanol, 25 °C; 2.25 uM dsRNA in cell, 80 uM protein in syringe; conditions: protein: recombinant; tags: N-terminal His6 (uncleaved); blunt
[2] = molecular target: T2, ADAR1-dsRBD3 wild-type (dsRBD3-mid); test: ITC; N = 4.15 ± 0.42; source data sheet gives 123 nM; ITC: 25 mM Na-phosphate pH 7.0, 100 mM NaCl, 2 mM 2-mercaptoethanol, 25 °C; 2.25 uM dsRNA in cell, 80 uM protein in syringe; conditions: protein: recombinant; tags: N-terminal His6 (uncleaved); chain copies: 2; blunt
[3] = molecular target: T3, ADAR1-dsRBD3 (dsRBD3-short); test: X-ray crystallography; 2.8 A; crystals from 50 mM Na cacodylate pH 6.0, 5% PEG 4000, 30 mM CaCl2, 230 mM KCl; ITC: 25 mM Na-phosphate pH 7.0, 100 mM NaCl, 2 mM 2-mercaptoethanol, 25 °C; 2.25 uM dsRNA in cell, 80 uM protein in syringe; conditions: protein: recombinant; tags: His6 removed by TEV (residual residues remain); chain copies: 2; self-duplex of 2 copies, 11 bp, 3' overhang 2 nt (CG) on each strand; overhangs pair to form a continuous pseudo-A-form helix; 3 strands per asymmetric unit

Binder | Kd [1] [nM] | Kd [2] [nM] | binding result [3]
24 bp dsRNA duplex (dsRNA) RNA 1: GGGAUCAAUAUGCUAAGCGAUCCC RNA 2: GGGAUCGCUUAGCAUAUUGAUCCC | 410 ± 65 | 125 ± 25 | 
13-nt self-complementary RNA (dsRNA) RNA 1: CGAAGCCUUCGCG RNA 2: CGAAGCCUUCGCG |  |  | binds
